pKd: −log10 of the molar value.

Other and Kd data for twelve substances are collected here from publication PMC6420115.

The target of the first assay is full length PfCSP (NF54 strain) (Plasmodium falciparum (NF54 strain)) (UniProt P19597).
Chain of full length PfCSP (NF54 strain) (Plasmodium falciparum (NF54 strain)) (P19597 19-374): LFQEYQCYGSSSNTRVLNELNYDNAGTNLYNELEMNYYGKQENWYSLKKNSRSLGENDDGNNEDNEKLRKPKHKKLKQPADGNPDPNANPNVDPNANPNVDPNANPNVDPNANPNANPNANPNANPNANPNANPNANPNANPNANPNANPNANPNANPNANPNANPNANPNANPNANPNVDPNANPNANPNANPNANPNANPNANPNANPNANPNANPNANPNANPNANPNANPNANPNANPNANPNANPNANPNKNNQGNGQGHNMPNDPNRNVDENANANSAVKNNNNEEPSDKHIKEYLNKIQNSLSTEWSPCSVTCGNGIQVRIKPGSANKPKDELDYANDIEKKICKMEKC
Experiment: not given
Settings: not given
For the substance 1210_H.K56_Nrev IgG (antibody), the other is 0.14 µg/mL.

1210_H.N31_Srev IgG (antibody) showed an other of 0.14 µg/mL.

Substance 1210_H.V50_Imut IgG (antibody) gave an other of 0.16 µg/mL.

Substance “1210_NS IgG (1210_H.K56_Nrev_K.N93_Srev) (antibody)” yielded an other of 0.17 µg/mL.

The substance 2163 IgG (germline antibody 2163) gave an other of 0.2 µg/mL.

2163_H.S31_Nmut IgG (antibody) returned an other of 0.12 µg/mL.

As to 2163_H.V50_Imut IgG (antibody), the other was 0.16 µg/mL.

Turning to “2163_KN IgG (2163_H.N56_Kmut_K.S93_Nmut) (antibody)”, the other was 0.21 µg/mL.

A further assay deals with minimal NANP3 peptide. The experiment in a line: SPR. As to conditions: parent: est. 2.1e-6 M; read off a plot.
For orientation: pKd means the negative decadic logarithm of the Kd, by convention in mol/L. On to “2163 IgG (germline antibody 2163) H:N56K”, for which the pKd is 5.59.

Take “2163 IgG (germline antibody 2163) H:N56K; K:S93N”: the negative-log Kd (pKd) is 5.59.

For “2163 IgG (germline antibody 2163) H:S31N”, the pKd was 5.82.

With “2163 IgG (germline antibody 2163) H:V50I”, the negative logarithm of the Kd (pKd) was 6.89.
